# Assay results published in PMC2756588.
# T1: Bzz1-2, P38822
# T1 sequence (P38822 568-633, looked up): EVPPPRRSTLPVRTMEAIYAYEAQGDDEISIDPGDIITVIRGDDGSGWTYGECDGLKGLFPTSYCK
# T2: Bzz1-1, P38822
# T2 sequence (P38822 478-572, looked up): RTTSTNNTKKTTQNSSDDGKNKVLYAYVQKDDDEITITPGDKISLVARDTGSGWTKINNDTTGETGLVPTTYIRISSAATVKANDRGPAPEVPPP
# T3: Sla1-3, P32790
# T3 sequence (P32790 344-424, looked up): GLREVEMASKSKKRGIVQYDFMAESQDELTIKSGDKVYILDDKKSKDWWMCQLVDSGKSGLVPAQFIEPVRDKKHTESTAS
# T4: Boi2, P39969
# T4 sequence (P39969 32-116, looked up): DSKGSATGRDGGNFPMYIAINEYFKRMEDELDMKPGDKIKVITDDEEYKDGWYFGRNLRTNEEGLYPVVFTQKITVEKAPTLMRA
# T5: Bbc1, P47068
# T5 sequence (P47068 1-78, looked up): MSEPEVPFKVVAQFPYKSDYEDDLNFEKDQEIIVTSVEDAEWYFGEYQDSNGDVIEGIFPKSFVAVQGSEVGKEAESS
# T6: Cdc25, P04821
# T6 sequence (P04821 50-136, looked up): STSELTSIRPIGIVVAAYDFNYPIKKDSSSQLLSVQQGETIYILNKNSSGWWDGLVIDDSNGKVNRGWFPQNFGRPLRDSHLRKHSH
# T7: Lsb4, P32793
# T7 sequence (P32793 402-468, looked up): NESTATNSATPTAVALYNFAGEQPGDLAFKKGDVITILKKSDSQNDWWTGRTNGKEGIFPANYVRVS
# T8: Sla1-2, P32790
# T8 sequence (P32790 60-140, looked up): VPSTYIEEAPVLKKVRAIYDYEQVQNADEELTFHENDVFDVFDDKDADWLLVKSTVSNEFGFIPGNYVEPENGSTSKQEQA
# T9: Hse1, P38753
# T9 sequence (P38753 208-285, looked up): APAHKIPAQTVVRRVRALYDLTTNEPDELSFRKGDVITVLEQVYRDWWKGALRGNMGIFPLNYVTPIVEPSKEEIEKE
# T10: Pin3, Q06449
# T10 sequence (Q06449 53-122, looked up): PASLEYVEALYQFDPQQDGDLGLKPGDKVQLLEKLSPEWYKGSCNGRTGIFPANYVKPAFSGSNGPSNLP
# T11: Bud14, P27637
# T11 sequence (P27637 247-328, looked up): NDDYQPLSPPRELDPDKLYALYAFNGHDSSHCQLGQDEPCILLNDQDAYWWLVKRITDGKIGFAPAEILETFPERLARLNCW
# T12: Lsb1, P53281
# T12 sequence (P53281 45-122, looked up): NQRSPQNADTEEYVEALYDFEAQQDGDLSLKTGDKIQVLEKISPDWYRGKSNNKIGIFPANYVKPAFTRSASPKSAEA
# T13: Hof1, Q05080
# T13 sequence (Q05080 590-669, looked up): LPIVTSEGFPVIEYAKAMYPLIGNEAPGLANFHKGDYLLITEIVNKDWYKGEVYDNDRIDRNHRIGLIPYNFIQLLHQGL
# T14: Cyk3, Q07533
# T14 sequence (Q07533 1-83, looked up): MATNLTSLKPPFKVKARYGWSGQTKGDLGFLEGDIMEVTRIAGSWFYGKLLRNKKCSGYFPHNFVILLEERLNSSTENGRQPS
# T15: Pex13, P80667
# T15 sequence (P80667 295-386, looked up): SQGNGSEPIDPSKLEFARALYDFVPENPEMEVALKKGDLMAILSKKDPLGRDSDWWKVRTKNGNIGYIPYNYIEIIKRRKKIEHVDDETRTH
# T16: Myo5, Q04439
# T16 sequence (Q04439 1072-1160, looked up): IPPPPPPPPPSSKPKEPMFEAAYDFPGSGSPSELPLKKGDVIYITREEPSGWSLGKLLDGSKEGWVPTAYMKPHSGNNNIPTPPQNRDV
# T17: Boi1, P38041
# T17 sequence (P38041 1-86, looked up): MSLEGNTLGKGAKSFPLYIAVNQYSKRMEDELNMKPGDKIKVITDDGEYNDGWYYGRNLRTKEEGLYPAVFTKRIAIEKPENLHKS
# T18: Abp1, P15891
# T18 sequence (P15891 535-592, looked up): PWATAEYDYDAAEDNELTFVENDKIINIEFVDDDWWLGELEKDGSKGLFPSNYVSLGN
# T19: Nbp2, Q12163
# T19 sequence (Q12163 103-180, looked up): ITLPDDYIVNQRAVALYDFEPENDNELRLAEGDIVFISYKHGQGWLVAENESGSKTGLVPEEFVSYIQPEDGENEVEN
# T20: Fus1, P11710
# T20 sequence (P11710 432-512, looked up): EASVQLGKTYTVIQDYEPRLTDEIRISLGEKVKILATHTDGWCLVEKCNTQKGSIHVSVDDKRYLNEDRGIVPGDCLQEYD
# T21: Lsb3, P43603
# T21 sequence (P43603 385-451, looked up): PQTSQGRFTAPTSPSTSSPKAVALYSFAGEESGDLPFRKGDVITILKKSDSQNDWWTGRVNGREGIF
# Molecular target: Rvs167, P39743
# Experiment: SPOT array
# Conditions: median of control spots 2707
# Chain of Rvs167, P39743 (P39743 419-482): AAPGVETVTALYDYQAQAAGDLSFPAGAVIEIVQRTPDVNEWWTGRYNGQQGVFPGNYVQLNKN
row,Binder,SPOT intensity
1,VQQDSLPKLPFRSWG,944
2,LPMNIQPDLPPRKIM,2810
3,QQEQNTPPLPPKPKS,0

# Molecular target: T1, Bzz1-2, P38822
# Experiment: SPOT array
# Conditions: median of control spots 4538
row,Binder,SPOT intensity
1,VQQDSLPKLPFRSWG,0
2,LPMNIQPDLPPRKIM,0
3,QQEQNTPPLPPKPKS,3

# Molecular target: T2, Bzz1-1, P38822
# Experiment: SPOT array
# Conditions: median of control spots 4446
row,Binder,SPOT intensity
1,VQQDSLPKLPFRSWG,0
2,LPMNIQPDLPPRKIM,0
3,QQEQNTPPLPPKPKS,0

# Molecular target: GST
# Experiment: SPOT array
# Conditions: median of control spots 978
row,Binder,SPOT intensity
1,VQQDSLPKLPFRSWG,0
2,LPMNIQPDLPPRKIM,0
3,QQEQNTPPLPPKPKS,0

# Molecular target: T3, Sla1-3, P32790
# Experiment: SPOT array
# Conditions: median of control spots 5475
row,Binder,SPOT intensity
1,VQQDSLPKLPFRSWG,0
2,LPMNIQPDLPPRKIM,0
3,QQEQNTPPLPPKPKS,3

# Molecular target: T4, Boi2, P39969
# Experiment: SPOT array
# Conditions: median of control spots 1161
row,Binder,SPOT intensity
1,VQQDSLPKLPFRSWG,2
2,LPMNIQPDLPPRKIM,0
3,QQEQNTPPLPPKPKS,0

# Molecular target: Sho1, P40073
# Experiment: SPOT array
# Conditions: median of control spots 1148
# Chain of Sho1, P40073 (P40073 287-367): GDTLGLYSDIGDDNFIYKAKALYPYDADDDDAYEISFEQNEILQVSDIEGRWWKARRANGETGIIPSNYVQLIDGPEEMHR
row,Binder,SPOT intensity
1,VQQDSLPKLPFRSWG,66
2,LPMNIQPDLPPRKIM,29
3,QQEQNTPPLPPKPKS,14

# Molecular target: T5, Bbc1, P47068
# Experiment: SPOT array
# Conditions: median of control spots 796
row,Binder,SPOT intensity
1,VQQDSLPKLPFRSWG,5
2,LPMNIQPDLPPRKIM,2
3,QQEQNTPPLPPKPKS,0

# Molecular target: T6, Cdc25, P04821
# Experiment: SPOT array
# Conditions: median of control spots 969
row,Binder,SPOT intensity
1,VQQDSLPKLPFRSWG,0
2,LPMNIQPDLPPRKIM,0
3,QQEQNTPPLPPKPKS,0

# Molecular target: T7, Lsb4, P32793
# Experiment: SPOT array
# Conditions: median of control spots 397
row,Binder,SPOT intensity
1,VQQDSLPKLPFRSWG,1310
2,LPMNIQPDLPPRKIM,1360
3,QQEQNTPPLPPKPKS,776

# Molecular target: T8, Sla1-2, P32790
# Experiment: SPOT array
# Conditions: median of control spots 712
row,Binder,SPOT intensity
1,VQQDSLPKLPFRSWG,0
2,LPMNIQPDLPPRKIM,6
3,QQEQNTPPLPPKPKS,1

# Molecular target: T9, Hse1, P38753
# Experiment: SPOT array
# Conditions: median of control spots 1727
row,Binder,SPOT intensity
1,VQQDSLPKLPFRSWG,0
2,LPMNIQPDLPPRKIM,3
3,QQEQNTPPLPPKPKS,184

# Molecular target: T10, Pin3, Q06449
# Experiment: SPOT array
# Conditions: median of control spots 2171
row,Binder,SPOT intensity
1,VQQDSLPKLPFRSWG,7
2,LPMNIQPDLPPRKIM,175
3,QQEQNTPPLPPKPKS,0

# Molecular target: T11, Bud14, P27637
# Experiment: SPOT array
# Conditions: median of control spots 956
row,Binder,SPOT intensity
1,VQQDSLPKLPFRSWG,0
2,LPMNIQPDLPPRKIM,0
3,QQEQNTPPLPPKPKS,0

# Molecular target: T12, Lsb1, P53281
# Experiment: SPOT array
# Conditions: median of control spots 388
row,Binder,SPOT intensity
1,VQQDSLPKLPFRSWG,399
2,LPMNIQPDLPPRKIM,285
3,QQEQNTPPLPPKPKS,0

# Molecular target: T13, Hof1, Q05080
# Experiment: SPOT array
# Conditions: median of control spots 4086
row,Binder,SPOT intensity
1,VQQDSLPKLPFRSWG,1570
2,LPMNIQPDLPPRKIM,0
3,QQEQNTPPLPPKPKS,950

# Molecular target: Bem1-1, P29366
# Experiment: SPOT array
# Conditions: median of control spots 4282
# Chain of Bem1-1, P29366 (P29366 55-141): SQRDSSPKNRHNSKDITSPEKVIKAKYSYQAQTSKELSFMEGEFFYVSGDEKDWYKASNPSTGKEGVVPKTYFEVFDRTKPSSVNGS
row,Binder,SPOT intensity
1,VQQDSLPKLPFRSWG,0
2,LPMNIQPDLPPRKIM,0
3,QQEQNTPPLPPKPKS,1

# Molecular target: T14, Cyk3, Q07533
# Experiment: SPOT array
# Conditions: median of control spots 1451
row,Binder,SPOT intensity
1,VQQDSLPKLPFRSWG,0
2,LPMNIQPDLPPRKIM,0
3,QQEQNTPPLPPKPKS,0

# Molecular target: Bem1-2, P29366
# Experiment: SPOT array
# Conditions: median of control spots 4347
# Chain of Bem1-2, P29366 (P29366 139-227): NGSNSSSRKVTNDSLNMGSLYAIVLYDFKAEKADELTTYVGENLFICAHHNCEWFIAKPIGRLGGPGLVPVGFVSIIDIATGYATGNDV
row,Binder,SPOT intensity
1,VQQDSLPKLPFRSWG,0
2,LPMNIQPDLPPRKIM,0
3,QQEQNTPPLPPKPKS,1

# Molecular target: T15, Pex13, P80667
# Experiment: SPOT array
# Conditions: median of control spots 1341
row,Binder,SPOT intensity
1,VQQDSLPKLPFRSWG,490
2,LPMNIQPDLPPRKIM,35
3,QQEQNTPPLPPKPKS,79

# Molecular target: T16, Myo5, Q04439
# Experiment: SPOT array
# Conditions: median of control spots 471
row,Binder,SPOT intensity
1,VQQDSLPKLPFRSWG,0
2,LPMNIQPDLPPRKIM,35
3,QQEQNTPPLPPKPKS,0

# Molecular target: T17, Boi1, P38041
# Experiment: SPOT array
# Conditions: median of control spots 1162
row,Binder,SPOT intensity
1,VQQDSLPKLPFRSWG,0
2,LPMNIQPDLPPRKIM,0
3,QQEQNTPPLPPKPKS,0

# Molecular target: Myo3, P36006
# Experiment: SPOT array
# Conditions: median of control spots 468
row,Binder,SPOT intensity
1,VQQDSLPKLPFRSWG,0
2,LPMNIQPDLPPRKIM,102
3,QQEQNTPPLPPKPKS,0

# Molecular target: T18, Abp1, P15891
# Experiment: SPOT array
# Conditions: median of control spots 935
row,Binder,SPOT intensity
1,VQQDSLPKLPFRSWG,0
2,LPMNIQPDLPPRKIM,141
3,QQEQNTPPLPPKPKS,3

# Molecular target: T19, Nbp2, Q12163
# Experiment: SPOT array
# Conditions: median of control spots 357
row,Binder,SPOT intensity
1,VQQDSLPKLPFRSWG,0
2,LPMNIQPDLPPRKIM,6
3,QQEQNTPPLPPKPKS,0

# Molecular target: T20, Fus1, P11710
# Experiment: SPOT array
# Conditions: median of control spots 1200
row,Binder,SPOT intensity
1,VQQDSLPKLPFRSWG,1
2,LPMNIQPDLPPRKIM,0
3,QQEQNTPPLPPKPKS,0

# Molecular target: T21, Lsb3, P43603
# Experiment: SPOT array
# Conditions: median of control spots 406
row,Binder,SPOT intensity
1,VQQDSLPKLPFRSWG,646
2,LPMNIQPDLPPRKIM,941
3,QQEQNTPPLPPKPKS,923
